# Measured values: the nanobody polyreactivity screen of Harvey et al. (2022)
# Assay: yeast display, Sf9 membrane polyspecificity reagent, FACS + sequencing; frameworks hold sequencing errors
# Method in brief: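 A nanobody's polyreactivity label depends on the gate it was sorted from. Yeast display cells were stained with 10% biotinylated, detergent-solubilized Sf9 membrane reagent for 1 hour at 4 °C, enriched on streptavidin microbeads and sorted by FACS. The low and high (top ~1%) gates were set on anti-HA fluorescence for expression and streptavidin fluorescence for reagent binding.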
row,Sequence,polyreactivity (PSR sort gate)
1,QVQLVESGGGLVQAGGSLRLSCAASGSIFLWYTMGWYRQAPGKERELVAAISRTGGSTYYADSVKGRFTISRDNAKNTVYLQMNSLKPEETAVYYCAASFRPRSSRDYYYGYGYWGQGTQVTVSS,high polyreactivity
2,QVQLVESGGGLVQAGGSLRLSCAASGSIFLYNAMGWYIQAPGKERELVAAISRSSTSTYYADSVKGRFTISRDNAKNTVYLQMNSLKPEDTAVYYCAARGRVTYWGQGTQVTVSS,high polyreactivity
3,QVQLVESGGGLVQAGGSLRLSCAASGSIFLYNDMGWYRQAPGKERELVAAITSTGNTNYADSVKGRFTISRDNAKNTVYLQMNSLNRKIPRSITALNVSCTSVVVGYDYWGQGTQVTVSS,low polyreactivity
4,QVQLVESGGGLVQAGGSLRLSCAASGSIFLYNTMGWYRQAPGKERELVAAISFSGVTTYYADSVKGRFTISRDNAKNTVYLQMNSLKPEDTAVYYCNKYLWKFTNSPLGDYYWGQGTQVTVSS,high polyreactivity
5,QVQLVESGGGLVQAGGSLRLSCAASGSIFLYNTMGWYRQAPGKERELVAAITSGGNTNYADSVKGRFTISRDNAKNTVYLQMNSLKPEDTAVYYCNVDLKAWLPDGGSVDYWGQGTQVTVSS,low polyreactivity
6,QVQLVESGGGLVQAGGSLRLSCAASGSIFLYNTMGWYRQAPGKERELVAAITYSGGSTYYADSVKGRFTISRDYAKNTVYLQMNSLKPEDTAVDYCNARHYSAYYSWGQGTQVTVSS,high polyreactivity
7,QVQLVESGGGLVQAGGSLRLSCAASGSIFLYYAMGWYRQAPGKERELVAAISGRAGSTYYADSVKGRFTISRDNAKNTVYLQMNSLKPEDTSVYYCAAGYWHGYPGFKYYWGQGTQVTVSS,low polyreactivity
8,QVQLVESGGGLVQAGGSLRLSCAASGSIFLYYVMGWYRQAPGKERELVAAITWDGGSTYYADSVKGRFTISRDNAKNTVYLQMNSLKPEDTAVYYCNADTIVAWFDIFEEMDSWGQGTQVTVSS,low polyreactivity
9,QVQLVESGGGLVQAGGSLRLSCAASGSIFNANAMGWYRPAPGKERELVAGIRSGSSTNYADSVKGRFTISRDNAKNTVYLQMNSLKPEDTAVYYCATEGYWVYGFDDEYWGQGTQVTVSS,low polyreactivity
10,QVQLVESGGGLVQAGGSLRLSCAASGSIFNANAMGWYRQAPAKERELVAAITPSDGDTYYADSVKGRFTISRDNAKNTVYLQMNSLKPEDTAVYYCAAEDDPGEYEYWGQGTQVTVSS,low polyreactivity
11,QVQLVESGGGLVQAGGSLRLSCAASGSIFNANTMGWYRQAPGKERELVAVITSGGSTYYADSVKGRFTISRDNAKNTVYLQMNSLKPEDTAVYYCAKDPGPYDYDYWGQGTQVTVSS,low polyreactivity
12,QVQLVESGGGLVQAGGSLRLSCAASGSIFNDNVMGWYRQAPGKERELVAGISRSGTRTYYADSVKGRFTISRDNAKNTVYLQMNSLKPEDTAVYYCAAAYGQARRYNGSQYGSWGQGTQVTVSS,high polyreactivity
13,QVQLVESGGGLVQAGGSLRLSCAASGSIFNGYALGWYRQAPGKERELVAAISSGGCTNYADSVKGSFTISRDNAKNTVYLQMNSLKPEDTAVYYCDKDYGYYWPWHYIASYEYDYWGQGTQVTVSS,low polyreactivity
14,QVQLVESGGGLVQAGGSLRLSCAASGSIFNGYVMGLYRQAPGKERELVAAISSGGRTYYADSVKGRFTISRDNAKNTVYLQMNSLKPEDTAVYYCAADIWYFDYDYWGQGTQVTVSS,high polyreactivity
15,QVQLVESGGGLVQAGGSLRLSCAASGSIFNGYVMGWYTQAPGKERELVAANSRSGGRTYYADSVKGRFTISRDNAKNTVYLQMNSLKPEDTAVYYCAARNYLYAIMGKWLDYNYWGQGTQVTVSS,high polyreactivity
16,QVQLVESGGGLVQAGGSLRLSCAASGSIFNINAMGWYRQAPGKERELVATITSGGTASYADSVKGRFTISRDNAKNTVYLQMNSLKPEDTAVYDCNAEMYPIVKAGRQHPRRYDYWGQGTQVTVSS,low polyreactivity
17,QVQLVESGGGLVQAGGSLRLSCAASGSIFNIYAMGWDRQAPGKERELVAAIRWTGGSTYYADSVKGRFTISRDTAKNTVDLQMTSLKPEATAVYYCAARTSRGGHYYWGPGTQVTVSS,high polyreactivity
18,QVQLVESGGGLVQAGGSLRLSCAASGSIFNIYAMGWYRQAPGKERELVATITGIADSTYYADSVKGRFTISRDNAKNTVYLQMNSLKPEDTAVYFCAAKYGSRYTTGQTRRDYYSWGQGTQVTVSS,low polyreactivity
19,QVQLVESGGGLVQAGGSLRLSCAASGSIFNIYAMGWYRQAPGKERELVATITGIADSTYYADSVKGRFTISRDNAKNTVYLQMNSLKPEDTAVYYCNADPSGVFFYSLEFDYWGQGTQVTVSS,low polyreactivity
20,QVQLVESGGGLVQAGGSLRLSCAASGSIFNKNVMGWYRQAPGKERELVAAITSGGGSTYYADSVKGRFTISRDNAKNTVYLQMNSLKPEDTAVYYCAAGRGLYEYNYWGQGTQVTVSS,high polyreactivity

row,Sequence,polyreactivity (PSR sort gate)
1,QVQLVESGGGLVQAGGSLRLSCAASGSIFNLYTMGWYRQAPGKEREFVSAISSSGTSTYYADSVKGRFTISRDNAKNTVYLQMNSLKPEDTAVYYCAADWTGGFYTWYVIPYDYWGQGTQVTVSS,low polyreactivity
2,QVQLVESGGGLVQAGGSLRLSCAASGSIFNLYTMGWYRQAPGKERELVAVITGGGSTYYADSVKGRFTISRDNAKNTVYLQMNSLKPDDTAVYYCAAKGPYYKSSRTGDYWGQGTQVTVSS,low polyreactivity
3,QVQLVESGGGLVQAGGSLRLSCAASGSIFNPYAMGWYRQAPGKERELVAVIRSRGDRTYYADSVKGRFTISRDYAKNTVYLQMNSLKPEDTAVYYCAVRAQESLWKQYYYWGQGTQVTVSS,high polyreactivity
4,QVQLVESGGGLVQAGGSLRLSCAASGSIFNRNAMGWYRQAPGKERELVAAINYSGGSTYYADSVKGRFTISRDNAKNTVYLQMNSLKPEDTAVYYCAARPVALRKYDYWGQGTQVTVSS,low polyreactivity
5,QVQLVESGGGLVQAGGSLRLSCAASGSIFNRNAMGWYRQARGKERELVAAITGSGGRTYYADSVKGRFTISRDNAKNTVYLQMNSLKPEDTAVYYCAARWGYYRYYIFDYWGQGTQVTVSS,high polyreactivity
6,QVQLVESGGGLVQAGGSLRLSCAASGSIFNRYAMGWYRKAPGKERELVAAMSSTGSTYYADSVKGRFTISRDNAKNTVYLQMNSLKPEDTAVYYCNADATPDWLRVDTYEYWGQGTQVTVSS,low polyreactivity
7,QVQLVESGGGLVQAGGSLRLSCAASGSIFNRYAMGWYRQAPGKERELVAAIRSGDNTNYADSVKGRFTISRDNAKNTVYLQMNSLKPEDTAVYYCNARYGGYRARYTYNYWGQGTQVTVSS,high polyreactivity
8,QVQLVESGGGLVQAGGSLRLSCAASGSIFNRYAMGWYRQAPGKERELVASISWRTASTYYADSVKGRFTISRDNAKNTVYLQMNSLKPEDTAVYYCAAKILGRPGYYYWGQGTQVTVSS,high polyreactivity
9,QVQLVESGGGLVQAGGSLRLSCAASGSIFNRYAMGWYRQAPGKERQFVAAITRRGGNTYYADSVKGRFTISRDNAKNTVYLQMNSLKREDTAVYYCAAPFYYPAGLLYYENNYWGQGTQVTVSS,high polyreactivity
10,QVQLVESGGGLVQAGGSLRLSCAASGSIFNRYTMGSYRQAPGKEREFVAAISSSGTSTYYADSVKGRFTISRDNAMNTVYLQMNSLKPEDTAVYYCAADYYRTPKSGSSGLDYWGQGTQVTVSS,low polyreactivity
11,QVQLVESGGGLVQAGGSLRLSCAASGSIFNSNAMGWYRPAPGKERELVAAITGSGGRTYYADSVKGRFTISRDNAKNTVYLKMNSLKPEDTAVYYCNVTRGTIGGYSYWGQGTQVTVSS,high polyreactivity
12,QVQLVESGGGLVQAGGSLRLSCAASGSIFNSNAMGWYRQAPGKERELVAVISWSDGSTRYADSVKGRFTISRDNVKNTVYLQMNSLKPEDTAVYYCAADYLDGIYEYDYWGQGTQVTVSS,low polyreactivity
13,QVQLVESGGGLVQAGGSLRLSCAASGSIFNSYAMGWYRQAPGKETELVAAITRSDGSTYYADSVKGRFTISRDKAKNTVYLQMNSLKPEDTAVYYCAKGVGGYIYSEYDYWGQGTQVTVSS,low polyreactivity
14,QVQLVESGGGLVQAGGSLRLSCAASGSIFNVNAMGWYRQAPGKERELVAAISSGGDTYYADSVKGRFTISRDNAKNTVYLQMNSLKPEDTAVYYCAKQSYTLYTLLYDYWGQGTQVTVSS,low polyreactivity
15,QVQLVESGGGLVQAGGSLRLSCAASGSIFNWYAMGWYRQAPGKERELVAAISSSGSTNYADSVKGRFTISRDNAKNTVYLQMNSLKPEDTAVYYCNADEYYLNNYNYGYWGQGTQVTVSS,low polyreactivity
16,QVQLVESGGGLVQAGGSLRLSCAASGSIFNYNAMGWYRHAPGKERELFAAITYHGGSTYYADSVKGRFTISRDNAKYTVYLQMNSLKPEDTAVYYCNALRGYRPGWFDYWGQGTQVTVSS,high polyreactivity
17,QVQLVESGGGLVQAGGSLRLSCAASGSIFNYNAMGWYRQAPGKERELVAAISSGGSTNYADSVKGRFTISRDNAKNTVYLQMNSLKPEDTAVYYCAKRWWVYYPRYDYWGQGTQVTVSS,high polyreactivity
18,QVQLVESGGGLVQAGGSLRLSCAASGSIFNYYAMGWYRQAPGKERELVAAISTSGGRTYYADSVKGRFTISRDNAKKTVYLQMNSLKPEDTAVYYCNAVSRTRAGAGDYWGQGTQVTVSS,high polyreactivity
19,QVQLVESGGGLVQAGGSLRLSCAASGSIFNYYAMGWYRQAPGKERELVAAITSADGRTFYADSVKGRFTISRDNANNTVYLQMNSLKPDDTAVYYCAAERTSRYSTYEYWGQGTQVTVSS,low polyreactivity
20,QVQLVESGGGLVQAGGSLRLSCAASGSIFNYYDMGWYRQAPGKEREFVARITIGGSSTNYADSVKGRFTISRDNAKNTVYLQMNSLKPEDTAVYYCAASQYGIFFSQMDYWGQGTQVTVSS,low polyreactivity
